Measured values from US8540999B2, “Allergenic proteins and peptides from Japanese cedar pollen” (Merck Patent GmbH, priority 1991, dated 2013).

How the values were obtained:
Cry j I reactive T cells = test: T cell proliferation assay, Cry j I primed T cell lines (Example 6); format: cell-based, human
Method: Viable cells were purified by LSM centrifugation and cultured in complete medium supplemented with 5 units recombinant human IL-2/ml and 5 units recombinant human IL-4/ml for up to three weeks until the cells no longer responded to lymphokines and were considered “rested”. The ability of the T cells to proliferate to selected peptides, recombinant Cry j I (rCry j I), purified native Cry j I, or recombinant Amb aI.1 (rAmb aI.1) or a positive control, phyto-hemaglutinin (PHA) was then assessed. For assay, 2×10^4 rested cells were restimulated in the presence of 2×10^4 autologous Epstein-Barr virus (EBV)-transformed B cells (prepared as described below) (gamma-irradiated with 25,000 RADS) with 2-50 μg/ml of selected peptides, Cry j I, purified native Cry j I or rAmb a I.1 or PHA, in a volume of 200 μl complete medium in duplicate or triplicate wells in 96-well round bottom plates for 2-4 days. […] Each well then received 1 μCi tritiated thymidine for 16-20 hours. The counts incorporated were collected onto glass fiber filter mats and processed for liquid scintillation counting. […] The titrations were used to optimize the dose of peptides in T cell assays. The maximum response in a titration of each peptide is expressed as the stimulation index (S.I.). The S.I. is the counts per minute (CPM) incorporated by cells in response to peptide, divided by the CPM incorporated by cells in medium only.
The above procedure was followed with a number of other patients. […] The bars represent the positivity index. Above each bar is the percent of positive responses with an S.I. of at least two to the peptide or protein in the group of patients tested. In parenthesis above each bar are the mean stimulation indices for each peptide or protein for the group of patients tested.
Autologous EBV-transformed cell lines were y-irradiated with 25,000 Rad and used as antigen presenting cells in secondary proliferation assays and secondary bulk stimulations. These EBV-transformed cell lines were made by incubating 5×10^6 PBL with 1 ml of B-59/8 Marmoset cell line (ATCC CRL1612, American Type Culture Collection, Rockville, Md.) conditioned medium in the presence of 1 μg/ml phorbol 12-myristate 13-acetate (PMA) at 37° C. for 60 minutes in 12×75 mm polypropylene round-bottom Falcon snap cap tubes (Becton Dickinson Labware, Lincoln Park, N.J.). These cells were then diluted to 1.25×10^6 cells/ml in RPMI-1640 as described above except supplemented with 10% heat-inactivated fetal bovine serum and cultured in 200 μl aliquots in flat bottom culture plates until visible colonies were detected. They were then transferred to larger wells until the cell lines were established.

[1] = system: Secondary T cell cultures reactive with Cry j I protein antigen; test: In vitro T cell proliferation assay, secondary T cell cultures of 36 Cry j I-allergic subjects, percent T cell reactivity algorithm; format: cell-based, human; details: patient 1308; highest S.I. >= 2.0 recorded per peptide
human basophil = test: Histamine release assay; format: cell-based; details: one Japanese cedar pollen allergic patient, FIG. 11
Method: To determine whether a peptide which binds IgE results in the release of mediators, a histamine release assay can be performed using standard reagents and protocols obtained for example, from Amac, Inc. (Westbrook, Me.). Briefly, a buffered solution of a peptide to be tested is combined with an equal volume of whole heparinized blood from an allergic subject. After mixing and incubation, the cells are pelleted and the supernatants are processed an analyzed using a radioimmunoassay to determine the amount of histamine released.
A histamine release assay was performed on one Japanese cedar pollen allergic patient using Japanese cedar pollen SPE, purified native Cry j I and rCry j I as the added antigens. This assay is a measure of IgE reactivity through human basophil mediator release. […] Two possible explanations for this release by the rCry j I are: 1) specific reactivity with a very low proportion of the anti-Cry j I IgE capable of recognizing the recombinant form of Cry j I, or 2) non-specific release caused by low abundance of bacterial contaminants observed only at the highest antigen concentration. […] In addition, the data shown are from single data points at each protein concentration.

human allergic IgE = test: Capture ELISA with MAb CBF2; format: binding; details: pooled human plasma (15 patients), FIG. 10a
Method: Another method of analysis that was applied to the examination of IgE reactivity to the recombinant Cry j I was a capture ELISA. This analysis relies on the use of a defined antibody, in this case CBF2 to bind the antigen and allow for the binding of antibodies to other epitope sites. The format of this capture ELISA is 1) wells are coated with MAb CBF2, 2) antigen or PBS (as one type of negative control) is added and captured by specific interaction with the coated MAb, 3) either the control antibody anti-Amb a I & II (FIG. 10b) or human allergic plasma (FIG. 10a) is added as the detecting antibody, and 4) detection of antibody binding is assayed. FIGS. 10a and 10b are the graphed results of these assays. For the IgE analysis, the pooled human plasma (PHP) (15 patients) was used.

allergic patient IgE = test: Direct ELISA, IgE binding to rCry j I and Cry j I peptides (Example 8); parameters: species or system human
Method: The recombinant Cry j I protein (rCry j I), expressed in bacteria and then purified (as described in Example 5), has been examined for IgE reactivity. The first method applied to this examination was direct ELISA where wells were coated with the recombinant Cry j I and IgE binding was assayed on individual patients. FIG. 9 is the graphic representation of this direct ELISA.
To analyze IgE reactivity to selected Cry j I peptides a direct ELISA format was used. ELSIA wells were coated with 25 peptides derived from Cry j I and assayed for IgE binding. FIG. 15a and 15b are graphs of these binding results using PHP (15 patients) as the cedar pollen allergic IgE source. This pool of plasma was formulated for enrichment of IgE that could bind to denatured SPE (as determined by direct ELISA) and therefore increase the chance of reactivity toward the peptides.

IgE = test: RAST, competition ELISA and Western blotting (data not shown); format: binding, human

specific binding of human allergic IgE, capture ELISA (human allergic IgE)	IgE binding, direct ELISA (allergic patient IgE; PHP (15 patients), FIG. 15)	IgE reactivity, direct ELISA (allergic patient IgE; individual patients, FIG. 9)	Molecule	T cell line response (Cry j I reactive T cells; panel of twenty-five patients, FIG. 14)	STIMULATION INDEX [1]	histamine release (human basophil)	percent of positive responses with an S.I. of at least two (Cry j I reactive T cells; 25 patients / T cell lines, FIG. 14)	T cell proliferative response (Cry j I reactive T cells; patient #999, FIG. 12)	specific IgE reactivity (IgE)
–	–	–	CJ1-30: Cry j I peptide, SEQ ID NO: 55 (CSNWVWQSTQDVFYNGAYFV; listed as Cryptomeria japonica)	responded	0	–	–	–	–
no indication of any specific binding	does not bind	no IgE reactivity	rCry j I: recombinant Cry j I protein expressed in bacteria (E. coli) and purified (protein, left off: small tags and cut ends, recombinant Cry j I protein expressed in bacteria (E. coli) and purified) DNPIDSCWRGDSNWAQNRMKLADCAVGFGSSTMGGKGGDLYTVTNSDDDPVNPAPGTLRYGATRDRPLWIIFSGNMNIKLKMPMYIAGYKTFDGRGAQVYIGNGGPCVFIKRVSNVIIHGLYLYGCSTSVLGNVLINESFGVEPVHPQDGDALTLRTATNIWIDHNSFSNSSDGLVDVTLTSTGVTISNNLFFNHHKVMLLGHDDAYSDDKSMKVTVAFNQFGPNCGQRMPRARYGLVHVANNNYDPWTIYAIGGSSNPTILSEGNSFTAPNESYKKQVTIRIGCKTSSSCSNWVWQSTQDVFYNGAYFVSSGKYEGGNIYTKKEAFNVENGNATPQLTKNAGVLTCSLSKRC	–	–	only point where there is any measurable histamine release with the Cry j I is at the highest concentration	68.0%	responds well	no specific IgE reactivity
